Laboratory results from the supplement of paper PMC10724198.
± gives the standard deviation of the averaged measurements.

Each sequence was assayed on Saccharomyces cerevisiae (assay: protein stability index of tFT-peptide fusion (C-terminal peptide) (PSI (0-1 scale)); higher = more stable (slower turnover)). Conditions: genetic background: wild type; temperature: 30 C.
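Also: PSI is a weighted mean of sequencing reads over stability bins, variants kept only with over 10 reads, mCherry proximal and sfGFP distal, peptide attached via GGGS linker.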

Sequence	protein stability index
NPGGRPKNTINP	0.649 ± 0.11
NPPPPAHYSRPP	0.73 ± 0.031
NPSRASAWPHVH	0.607 ± 0.061
NRGHWECIRVQR	0.582 ± 0.059
NRLVQNRQVQLY	0.682 ± 0.014
NRLVRLSQGGRE	0.668 ± 0.019
NRQNNYANDIQK	0.713 ± 0.045
NRTPTPNQTPPT	0.6798 ± 0.0048
NRYRKNIKKRKK	0.617 ± 0.028
NSIHRTRPKKII	0.641 ± 0.0048
NSRMSRYTTPYG	0.68054 ± 0.00052
NTCGYGRAIKST	0.687 ± 0.016
NTDPAKRNHPRK	0.71379 ± 0.00067
NTDSIKKQKKKK	0.675 ± 0.019
NTTCGVEQKEDK	0.649 ± 0.014
NVALPLSLLFGL	0.633 ± 0.087
NVGACRVMKTVY	0.6876 ± 0.003
NVLNLTDTKETL	0.652 ± 0.046
NYRGEKYDKREH	0.569 ± 0.11
PAAPFFPSLRLL	0.711 ± 0.03
PAASPVDEKVRL	0.633 ± 0.016
PAEGVVGGKCYV	0.685 ± 0.092
PAFCLTRAPSTQ	0.72 ± 0.071
PAFPPPLPRRFL	0.693 ± 0.23
PAHLFVPSSLFR	0.702 ± 0.042
PALPNNVQCDCE	0.705 ± 0.073

Sequence	protein stability index
PALPPRLPPPPL	0.602 ± 0.019
PALSVPPLLPPP	0.604 ± 0.0071
PAPAPPSHFQER	0.717 ± 0.043
PAPAVPPQTTPM	0.6693 ± 0.001
PAPFPAPPTHGP	0.7165 ± 0.0061
PAPHPPIPHQPP	0.532 ± 0.023
PAPHPRLTPIFL	0.749 ± 0.11
PAPPALPFHCPR	0.654 ± 0.075
PAPPLLPPPSPP	0.63 ± 0.027
PAPPPHSAPPLP	0.739 ± 0.024
PAPPPPPPALLP	0.677 ± 0.067
PAPPPSPPPRLA	0.67 ± 0.075
PAPTPAPNPNPH	0.74 ± 0.11
PARGPTPHIVPR	0.667 ± 0.053
PARSAGPLNARS	0.758 ± 0.013
PASGHLPPPLSP	0.641 ± 0.064
PASLPPRAPPPL	0.664 ± 0.019
PASRIGGALPGG	0.604 ± 0.03
PASYLSSPLRPP	0.667 ± 0.046
PATKQFLLRGGR	0.713 ± 0.0079
PAVLLGPCARVP	0.699 ± 0.04
PAVPPGGDPTCP	0.689 ± 0.0085
PCARLAGSPLPT	0.688 ± 0.021
PCCYAGLHFFLG	0.626 ± 0.068
PCLLANFFFFPA	0.653 ± 0.09
PCLSLSFPPLPH	0.736 ± 0.034

Sequence	protein stability index
PCLSRPSTPPSS	0.674 ± 0.036
PCPETPLLTRAA	0.651 ± 0.0094
PCPFSSPPPLTH	0.763 ± 0.053
PCSPRLPPFPSP	0.683 ± 0.017
PCTRIPPLDSPL	0.718 ± 0.058
PDPHTLTPTGHP	0.71 ± 0.026
PDSAGAALSLSS	0.695 ± 0.027
PDSIVACGPVGR	0.702 ± 0.043
PDTVRALMRGYK	0.721 ± 0.016
PEGPGAGRGEHN	0.686 ± 0.044
PEHGPWLFKGFF	0.653 ± 0.025
PEILSLDPLPSL	0.662 ± 0.018
PESGPVRLRTPP	0.624 ± 0.029
PESPNCRRTRAL	0.661 ± 0.031
PFAHPPRLPLFP	0.742 ± 0.096
PFAHSATFLSLG	0.774 ± 0.052
PFAPPPRPGPFP	0.697 ± 0.085
PFARPPPSPSPR	0.707 ± 0.012
PFCLPRPVRGVL	0.728 ± 0.1
PFCTRRSVRYRS	0.719 ± 0.049
PFCVALVDVGFW	0.564 ± 0.029
PFFFLPPSRPRP	0.671 ± 0.023
PFGPRLTQRSRP	0.697 ± 0.039
PFHSPLMPAHSH	0.764 ± 0.049
PFIPRFFSPCPL	0.673 ± 0.018
PFLGHCPPTPPP	0.732 ± 0.044

Sequence	protein stability index
PFLLDSMRALGL	0.737 ± 0.082
PFLLFVSSTCPL	0.605 ± 0.024
PFPPHSPPSAPS	0.697 ± 0.0093
PFPQVPFPRLAY	0.681 ± 0.066
PFPSYLSPLGPS	0.734 ± 0.037
PFRFSPFPLPLP	0.695 ± 0.023
PFSIVRRSSFAP	0.659 ± 0.082
PFSTVDLATAYP	0.712 ± 0.017
PFVFRPGPVPRV	0.643 ± 0.1
PFWGKWVPSSYL	0.7126 ± 0.0053
PFYLPPSTPPLL	0.739 ± 0.0076
PGCLMGSRGFSN	0.785 ± 0.18
PGDFSWAQCLFP	0.752 ± 0.048
PGDSALVLVTPQ	0.703 ± 0.069
PGFEPHLKLCAA	0.654 ± 0.042
PGGRTVLCGTVT	0.651 ± 0.0044
PGGSVYKPLATA	0.644 ± 0.071
PGLAGGASQEGR	0.58 ± 0.085
PGLLPTPSSPVP	0.821 ± 0.032
PGLRRHPPPPPP	0.739 ± 0.071
PGMTILETTIMD	0.691 ± 0.015
PGPSVRSWHPMD	0.69 ± 0.082
PGRGRQGSGIGM	0.671 ± 0.062
PGRSRGGPPERR	0.6386 ± 0.0035
PGTEVSDTLEVL	0.6894 ± 0.0045
PGTRNATPRRQP	0.707 ± 0.04

Sequence	protein stability index
PGVIFRLPSCFV	0.652 ± 0.061
PHAHTAPPPVPP	0.601 ± 0.017
PHAPTAGPFPLP	0.783 ± 0.021
PHILMSFGSPLS	0.729 ± 0.018
PHLLRRPPTQRH	0.633 ± 0.049
PHLSPPGLPTTP	0.685 ± 0.055
PHNSARSLPLHF	0.717 ± 0.052
PHPCPTPPPLAP	0.644 ± 0.043
PHPLPLPPPVAP	0.711 ± 0.031
PHPNHRGPKGAN	0.686 ± 0.032
PHPPCRPYPAGS	0.701 ± 0.031
PHPPPLTQTPHD	0.704 ± 0.014
PHPPPPPPALTP	0.704 ± 0.037
PHPSPSSPPLLP	0.657 ± 0.043
PHPVPPRLPFPS	0.747 ± 0.038
PHQPRDGSFHGT	0.653 ± 0.011
PHRLPPLPNPLH	0.693 ± 0.082
PHRSLHTPTLCS	0.686 ± 0.16
PHSLLPSSAPRN	0.696 ± 0.024
PHTHHLPPPNCP	0.679 ± 0.04
PHYLPHAPHGAL	0.704 ± 0.037
PIGAFLSFWGQW	0.828 ± 0.087
PIPPESLHPDHN	0.83 ± 0.038
PISCVLGFAFPS	0.708 ± 0.1
PISKLCLTSYEY	0.697 ± 0.021
PITLRRRSRPPT	0.692 ± 0.052

Sequence	protein stability index
PKEQTHKKQHNI	0.56 ± 0.039
PKNPRSTNGQLS	0.67 ± 0.055
PKPDFPGRHLSR	0.654 ± 0.093
PKSFLRRLRGWA	0.701 ± 0.07
PLAHYRPLPPRL	0.787 ± 0.063
PLAMRVALFSPP	0.651 ± 0.0089
PLAPSPPLPAFC	0.693 ± 0.02
PLAPSTPPNLSN	0.643 ± 0.073
PLASPYRLCPVP	0.624 ± 0.044
PLCPPPLPTPPP	0.5849 ± 0.0028
PLCPPPPVASFV	0.64 ± 0.013
PLDLPPLPLPPP	0.763 ± 0.15
PLFRHAPPSTLH	0.739 ± 0.014
PLFSLRPSIPFS	0.72 ± 0.033
PLGCFQQDVYEK	0.733 ± 0.089
PLHLPPFRPSPR	0.676 ± 0.12
PLHPPLSGPLPP	0.723 ± 0.021
PLHPPSLPPSRS	0.65 ± 0.059
PLLAPVPLTLTP	0.722 ± 0.022
PLLGPFTPSSLL	0.737 ± 0.0088
PLLHSARSSPFR	0.699 ± 0.049
PLLLLFLSLFRR	0.63 ± 0.023
PLLPLRSPPPLV	0.637 ± 0.046
PLLPPLPVSPLP	0.704 ± 0.038
PLLPRLNIPREF	0.658 ± 0.056
PLLSCLFLLFFL	0.526 ± 0.0065

Sequence	protein stability index
PLLSLGCFPFCL	0.724 ± 0.082
PLLVLPGPLLTP	0.668 ± 0.097
PLPFSPPFPPSS	0.732 ± 0.055
PLPFWPPPPRRP	0.674 ± 0.066
PLPIGLRHVKSE	0.696 ± 0.018
PLPIPPRRPNSP	0.65 ± 0.091
PLPLLPTNPSPP	0.636 ± 0.0096
PLPLPAPPPPSP	0.663 ± 0.01
PLPPFPPSPPFT	0.684 ± 0.036
PLPPLPPPPPPP	0.639 ± 0.051
PLPPPAIPRLCA	0.636 ± 0.029
PLPPPLLPRTRL	0.694 ± 0.11
PLPPPPLAPPPP	0.687 ± 0.014
PLPPPPPARLVP	0.649 ± 0.048
PLPPPPPPPHSP	0.738 ± 0.05
PLPPPPPPPPRL	0.678 ± 0.0073
PLPPPPPPPRSP	0.718 ± 0.077
PLPPPPPPPSTP	0.784 ± 0.0098
PLPPPPRLRCSS	0.649 ± 0.069
PLPPPPTPPSLS	0.716 ± 0.046
PLPPPRFPPPRL	0.68 ± 0.12
PLPPPRPPPSPP	0.603 ± 0.071
PLPPPRSSPVSS	0.658 ± 0.04
PLPPRLPPPPPS	0.72 ± 0.048
PLPPSRLSPSPP	0.7 ± 0.0036
PLPPTPSLDPSS	0.6992 ± 0.0033

Sequence	protein stability index
PLPPVVSFALSR	0.661 ± 0.061
PLPRPPPPANSP	0.714 ± 0.063
PLPRSPLHPSVP	0.74 ± 0.03
PLPSLPPSLAPW	0.692 ± 0.078
PLPSPASPSPPP	0.67 ± 0.12
PLPSPLLPRSVL	0.705 ± 0.045
PLPSPSLLLHCP	0.592 ± 0.0013
PLPTPHPHKPYQ	0.771 ± 0.025
PLPVRPGQHRIL	0.6918 ± 0.0024
PLRKGVHTHNNK	0.632 ± 0.053
PLRLLSTPSPLS	0.755 ± 0.049
PLRLPVPLPSPP	0.6571 ± 0.0062
PLRPGILLNKLP	0.646 ± 0.046
PLRPPPPPLAPP	0.697 ± 0.035
PLRPPPRPRQTH	0.671 ± 0.056
PLRPPPSPLSPR	0.76 ± 0.055
PLRPSVSALPPF	0.683 ± 0.018
PLRQRCIYDVPI	0.7688 ± 0.0039
PLRSLRFYTTLS	0.649 ± 0.018
PLRVATTLGYPL	0.649 ± 0.081
